Data as given in a protein production outcome set (Wang et al. 2014).

Experiment: label from the status in PepcDB records

Sequence: MKTHFVKLLTQPESAWVQIRSEEQRKPWQYLPHLLLWALVPALCLLIGVTQVGWSLVDAERVRLSLASAMQLALLLYLTALLGTVLMGGFIRWMSRPFEARPTLNQCVGFAAYTATPYFIAGISGLYPSRWLAVAALLVASAYASYLLLVGLPKFMYLNQERGRLYAASVWGVGLLVLVTILVSMILFWFNVLAPQYLRPLAAL
- protein production: failed

Sequence: MKTINVFHYDAFTNKPNMGNPAGIVLDADGLTEEEMQRIAEKVGFNETSFVLSSEVADIRMRYFTPGYEMDLCGHGTVGTIYALRERGLLEEKASLTIETKAGILPIQIGVNENGETFIKMRQTAPQFKDFAGSKEELAHSIGLEVNDLDVSLPIVYGSTGNWTVIVPVKNLDVCERMKPNNEVFPSVLKEIPNASIHPICLETYDEKVHMHGRHFSSAYAGTIEDPVTGTASGVMGAYYATYVEKDFDHEMELIVEQGQEIHKDGRVTVYVTKDVESEKLQIDIAGTAVYVKEFEVLI
- protein production: failed

Sequence: MKTKNKILPEQEEEKTFQYRTYGKGELALLYLPNILQQSAVDRFNEWIEAAPGLKERLLATGMNPRARYYTPAQVRLIIEVLQEP
- protein production: failed

Sequence: MKTLFWRTLVVIFIILGVIGAILPGMPTTVFLILAAWAASKGWPEMDEWLLNHPKYGPTLRDWRAHGTVPRKAKWIASIMMLISAIMMLFTNAPFWVKVFTDTTMLIVAIWLWLRPEPVKLPLESPTLHQNTEDEHV
- protein production: failed

Sequence: MKTLLIIAHAPSENTKLMAEAVLKGAQHPDIEQVQTRWVRPLEATPEDVLSCDGIIMGTTENLGYMSGALKDFFDRCYYPCLEVKQGLPCALYVRAGNDGTGTCRAVETICTGLRWNWIQPPLVCRGDWQTLFIEQCEELGMTMAAGLDVGIY
- protein production: failed

Sequence: MKTNSEELTVFVQVVESGSFSRAAEQLEMANSAVSRIVKRLEEKLGVNLLNRTTRQLNLTEEGAQYFRRAQRILQEMAAAETEMLAVHEVPQGVLRVDSAMPMVLHLLAPLAAKFNERYPHIRLSLVSSEGYINLIERKVDIALRAGELDDSGLRARHLFDSHFRVVASPEYLAKHGTPQSAEDLANHQCLGFTEPGSLNTWAVLDAQGNPYKISPHFTASSGEILRSLCLSSCGIACLSDFLVDNDITEGKLIPLFAEQTSNKTHPFNAVYYSDKAVNLRLRVFLDFLVKELGKNMNRTNTK
- protein production: not failed

Sequence: MKTRKIPLRKSVVSNEVIDKRDLLRIVKNKEGQVFIDPTGKANGRGAYIKLDNAEALEAKKKKVFNRSFSMEVEESFYDELIAYVDHKVKRRELGLE
- protein production: not failed

Sequence: MKTSIIILTCNNLRYSRRCIESIKKYTEKEAYEIIVVDNNSNDGTRNWLSKQKAIKKIYNNVNVGFPRGCNMGIKVACGSEVLLLNNDVVVTHNWLNNLRNCLYSSYEIGAVGPISNNCSNGQKINVRYDSIEDMHRFSKKYNISNKKKWTEVKRLIGFCFLIKRNVIRKVGLFDERFTPGNFEDDDYCIRMRKIGFRLMLCKDTFVHHYGSVSFKNTQYLKLLEVNKSKLEKKWGKSYDKLVLEHHHHHH
- protein production: failed

Sequence: MKTSRECFSSAGGSPMIRATSARSPPVPQSALPIGSLLSAPRPAFTETEAQGLARTHFGLDGTALPLTSERDQNFRLATPRGAFVLKIANAAEPRGVTECQTLALLHLEAVAPGLPVPRVIRTREGAPWTELAGGNLLRLLTWVEGEPLWRARRGAAQRRAVGLCLGGIAAALADFSHPSADHELLWDIRHAARLRALLPAIPDARTAVLAERVLDRFETAVAPRLADLPWQVVHNDMNPHNIMVDPANADRVAGVIDFGDLVRTARVCDLAVAGSYQVDPGDPAGTLADLVAGYHAANPLRPEEVELLPDLVAARMVTTIAIASARAAQQPDNAPYILRNLPASAAGLEALTALAPGAAAAALLRATEAA
- protein production: failed

Sequence: MKTTFLSLCFLLFFPLTGYSWQTAVTHISFHDLQRHRQLDSIIYYPTADQGETQLLSDTAVFRGISVLPNAPLAEGKFPLVVLSHGSGGNNTSLAWLADKLVQQGMVVVAANHPGSTTGDSIPAQSAQLWLQTEDISFIISTLLSDPRWKSALDEQAIGVIGHSKGGYSAIATLGATLSRPHFIASCQQQPEQPNCQFYTHAGVTLDQLSAEKFEGNYADKRLRFAIALDPGMVPFYQKSSLLHLSAPLLLINADYFISPNESLNLGGATWVKQLNQPGITAVTLTKSGHFDFLPLCKPAAGAILAEEGEAFICATPAVEREKLHQQTVQQILTYLQ
- protein production: failed

Sequence: MKTTKIVIASLVSLTMVSNPLLTFAATNDVIDNTTEITTDKETSSTQPTIKNTLKAGQTQSFNDWFPDDNFASEVAAAFEMQATDTISEEQLATLTSLDCHNSSITDMTGIEKLTGLTKLICTSNNITTLDLSQNTNLTYLACDSNKLTNLDVTPLTKLTYLNCDTNKLTKLDVSQNPLLTYLNCARNTLTEIDVSHNTQLTELDCHLNKKITKLDVTPQTQLTTLDCSFNKITELDVSQNKLLNRLNCDTNNITKLDLNQNIQLTFLDCSSNKLTEIDVTPLTQLTYFDCSVNPLTELDVSTLSKLTTLHCIQTDLLEIDLTHNTQLIYFQAEGCRKIKELDVTHNTQLYLLDCQAAGITELDLSQNPKLVYLYLNNTELTELDVSHNTKLKSLSCVNAHIQDFSSVGKIPALNNNFEAEGQTITMPKETLTNNSLTIAVSPDLLDQFGNPMNIEPGDGGVYDQATNTITWENLSTDNPAVTYTFTSENGAIVGTVTTPFEAPQPIKGEDVTVHYLDDKGEKLADDEVLSGNLDDPYTSSAKDIPDYTLTTTPDNATGTFTTTSQSVTYVYTKNIVAAEPVTVNYVDDTGKTLSPSEILNGNVGDTYNATAKQIDGYTLSAEPTNATGQFTSSAQTVNYIYTKNPAPEKGVVEIHYVDEDNKQLNSTTEISGTIGDNYTTEPKTIEGYTLTTTPGNATGTFTTGSQTVTYVYTKNIEAAEPITVNYVDANGKTLAPSETLNGNVGDTYKATAKQIDGYTLSAEPTNATGQFTSSAQTVNYIYTKNTNTDQPLPTKKPTNTTPTKPSNLKTTEVKKASDTLPKTGDSAPWKSALLGVFLSSTALVIWKKKK
- protein production: failed

Sequence: MKTTQRTAGWYHVMAAVTVMIWGTTFVATKVLIKYGLSPVDILFYRFLLAYICIWFFSPRVLLAKSWQDELRFVGLGLCGGSLYFVAENTALGMTLASNVSLIICTTPILTALLAPFFYKGDKLKARLIGGSLMALIGVGLVVFNGSFILQLSPAGDILTLIAALMWAFYCLLLRRMNTHYPTLFITRKVFFYGLVTLLPLFLVYPLQTDIHILFRPVVALNLLFLGVIASMLCYIMWNTAVKQLGVVCATSYIYVVPLITLLTSAIVIDETITIVALLGSALILSGVYIAERGVNLKK
- protein production: failed

Sequence: MKTVKDAEIFCQYIAHEYLGKRNYKLLEDIIDKRITIIGTGAHEVSRNIQELMTALNKEAELWDGTFIIEDEWYQGTELADNLFVVIGQIEGRQNSNDQLVYSFSSRVTFIIEYHDMQWKIIHVHQSVPDYSQGDDEFFPQRIVEESNAQLKKEIAEKTKELEMSNQQVIYNLRHDYLTGILNRPSLEKEVTEAMSNHQYGVILVLDIDYFKEVNDNNGHPYGDEVLIKLANTMQESFKSGICGRIGGDEFIIYLALDDANYDAIEKTIKEFKQNWQKNITTIDRSSTITLSIGGAYYPKHGKNYQELWSNADKALYLSKNNGRNRISIYQL
- protein production: failed

Sequence: MKVALGGTFEPLHEGHKKLIDVAIKLGGRDITIGVTSDRMARARIRSVLPFAIRAENVKRYVMRKYGFEPEIVKITNPYGKTLDVDFEYLVVSPETYEMALKINQKREELGKRKITIVKVDWMMAEDGKPISSTRIKRGEIDRYGGII
- protein production: not failed

Sequence: MKVASGSTATAAAGPSCALKAGKTASGAGEVVRCLSEQSVAISRCAGGAGARLPALLDEQQVNVLLYDMNGCYSRLKELVPTLPQNRKVSKVEILQHVIDYIRDLQLELNSESEVGTPGGRGLPVRAPLSTLNGEISALTAEAACVPADDRILCR
- protein production: failed

Sequence: MKVCYYYDGDVGNYYYGQGHPMKPHRIRMTHNLLLNYGLYRKMEIYRPHKANAEEMTKYHSDDYIKFLRSIRPDNMSEYSKQMQRFNVGEDCPVFDGLFEFCQLSTGGSVASAVKLNKQQTDIAVNWAGGLHHAKKSEASGFCYVNDIVLAILELLKYHQRVLYIDIDIHHGDGVEEAFYTTDRVMTVSFHKYGEYFPGTGDLRDIGAGKGKYYAVNYPLRDGIDDESYEAIFKPVMSKVMEMFQPSAVVLQCGSDSLSGDRLGCFNLTIKGHAKCVEFVKSFNLPMLMLGGGGYTIRNVARCWTYETAVALDTEIPNELPYNDYFEYFGPDFKLHISPSNMTNQNTNEYLEKIKQRLFENLRMLPHLEHHHHHH
- protein production: failed
